Experimental data published in patent US20150368338A1 (Janssen / Centocor, published 2015).
Residue numbers refer to the chain shown, from its start.

T1: IFN-αF (human, UniProt P01568 24-189)
T1 chain: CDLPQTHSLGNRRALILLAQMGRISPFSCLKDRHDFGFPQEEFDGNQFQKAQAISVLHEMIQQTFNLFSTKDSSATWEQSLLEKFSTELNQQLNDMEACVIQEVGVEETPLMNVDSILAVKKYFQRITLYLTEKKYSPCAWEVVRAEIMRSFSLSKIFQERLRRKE

B1: IFWM3331 (antibody, IgG1, V domains shown)
VH: EVQLVQSGAEVKKPGESLKISCKGSGYSFTSYWIGWVRQMPGKGLEWMGIIDPSDSDTRYSPSFQGQVTISADKSISTAYLQWSSLKASDTAMYYCARHPGLNWAPDFDYWGQGTLVTVSS
VL: DIQMTQSPSSLSASVGDRVTITCRASQSIDNSYLNWYQQKPGKAPKLLIYGASSLQSGVPSRFSGSGSGTDFTLTISSLQPEDFATYYCQQGWDWPLTFGQGTKVEIK
B2: IFWM3413 (antibody, IgG1, V domains shown)
VH: B1 VH with N103A
VL: DIQMTQSPSSLSASVGDRVTITCRASQSINYLNWYQQKPGKAPKLLIYGASSLQSGVPSRFSGSGSGTDFTLTISSLQPEDFATYYCQQSHDWPITFGQGTKVEIK
notes: mAb; IgG1/kappa said of the parent and of selected mAbs; also called IFWB3148
B3: IFWM3414 (antibody, IgG1, V domains shown)
VH: B1 VH with N103A
VL: B1 VL with D30R, S32N, G51A, W93Y, W95T
notes: mAb; IgG1/kappa said of the parent and of selected mAbs; also called IFWB3149
B4: IFWM3371 (antibody, IgG1, V domains shown)
VH: B1 VH with R59A
VL: B1 VL with D30A, S32T, Y33N, Y50H, G51W, G92W, W93Y, W95N
notes: mAb; IgG1/kappa said of the parent and of selected mAbs; also called IFWB3106
B5: IFWM3411 (antibody, IgG1, V domains shown)
VH: B1 VH with N103A
VL: B1 VL with S32N, Y33N, G51A, W93Y
notes: mAb; IgG1/kappa said of the parent and of selected mAbs; also called IFWB3146
B6: IFWM3415 (antibody, IgG1, V domains shown)
VH: B1 VH with N103A
VL: B1 VL with D30S, Y33N, Y50H, G51W, G92W, W93Y, W95H
notes: mAb; IgG1/kappa said of the parent and of selected mAbs; also called IFWB3150
B7: IFWM3377 (antibody, IgG1, V domains shown)
VH: B1 VH with R59A
VL: B1 VL with D30R, S32T, Y33N, Y50H, G51W, W93Y, W95T, L97F
notes: mAb; IgG1/kappa said of the parent and of selected mAbs; also called IFWB3112
B8: IFWM3407 (antibody, IgG1, V domains shown)
VH: B1 VH with N103A
VL: B1 VL with D30R, S32N, Y33N, Y50H, G51W, W93Y, W95T, L97F
notes: mAb; IgG1/kappa said of the parent and of selected mAbs; also called IFWB3142
B9: IFWM3409 (antibody, IgG1, V domains shown)
VH: B1 VH with N103A
VL: B1 VL
notes: mAb; IgG1/kappa said of the parent and of selected mAbs; also called IFWB3144
B10: IFWM3376 (antibody, IgG1, V domains shown)
VH: B1 VH with R59A
VL: B1 VL with D30S, Y33N, Y50H, G51W, G92W, W93Y, W95H
notes: mAb; IgG1/kappa said of the parent and of selected mAbs; also called IFWB3111
B11: IFWM3420 (antibody, IgG1, V domains shown)
VH: B1 VH with R59A
VL: DIQMTQSPSSLSASVGDRVTITCRASQSIAGFLNWYQQKPGKAPKLLIYYASSLQSGVPSRFSGSGSGTDFTLTISSLQPEDFATYYCQQSYSIPITFGQGTKVEIK
notes: mAb; IgG1/kappa said of the parent and of selected mAbs; also called IFWB3155
B12: IFWM3418 (antibody, IgG1, V domains shown)
VH: B1 VH
VL: B11 VL
notes: mAb; IgG1/kappa said of the parent and of selected mAbs; also called IFWB3153
B13: IFWM3417 (antibody, IgG1, V domains shown)
VH: B1 VH with N103A
VL: B1 VL with D30A, S32N, Y33D, Y50H, G51W, G92D, W93Y
notes: mAb; IgG1/kappa said of the parent and of selected mAbs; also called IFWB3152
B14: IFWM3406 (antibody, IgG1, V domains shown)
VH: B1 VH with N103A
VL: B2 VL with Y31N, G49W, S90G, H91Y, W93T, I95F
notes: mAb; IgG1/kappa said of the parent and of selected mAbs; also called IFWB3141
B15: IFWM3419 (antibody, IgG1, V domains shown)
VH: B1 VH with N103A
VL: B11 VL
notes: mAb; IgG1/kappa said of the parent and of selected mAbs; also called IFWB3154
B16: IFWM3378 (antibody, IgG1, V domains shown)
VH: B1 VH with R59A
VL: B1 VL with D30A, S32N, Y33D, Y50H, G51W, G92D, W93Y
notes: mAb; IgG1/kappa said of the parent and of selected mAbs; also called IFWB3113
B17: IFWM3370 (antibody, IgG1, V domains shown)
VH: B1 VH with R59A
VL: B1 VL
notes: mAb; IgG1/kappa said of the parent and of selected mAbs; also called IFWB3105
B18: IFWM3375 (antibody, IgG1, V domains shown)
VH: B1 VH with R59A
VL: B1 VL with D30R, S32N, G51A, W93Y, W95T
notes: mAb; IgG1/kappa said of the parent and of selected mAbs; also called IFWB3110
B19: IFWM3372 (antibody, IgG1, V domains shown)
VH: B1 VH with R59A
VL: B1 VL with S32N, Y33N, G51A, W93Y
notes: mAb; IgG1/kappa said of the parent and of selected mAbs; also called IFWB3107

Experiments:
[1] = biological target: T2, IFN-αC (human, UniProt P01566 24-189); experiment: cell-based or functional assay
[2] = biological target: T3, IFN-αG (human, UniProt P01569 24-189); experiment: cell-based or functional assay
[3] = biological target: T1, IFN-αF; experiment: cell-based or functional assay
[4] = biological target: IFN-αH2 (human, UniProt P01570 24-189); experiment: cell-based or functional assay
[5] = biological target: T2, IFN-αC; experiment: ProteOn SPR, cell supernatant;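 also: each binding measurement used just a single antigen concentration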
Description: (§1) To increase the assay throughput, only one concentration of the individual antigen was used.

[6] = biological target: T3, IFN-αG; experiment: ProteOn SPR, cell supernatant;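 also: each binding measurement used just a single antigen concentration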
Description: as §1

[7] = biological target: T1, IFN-αF; experiment: ProteOn SPR, cell supernatant;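 also: each binding measurement used just a single antigen concentration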
Description: as §1

[8] = biological target: T4, IFN-αWA (human, UniProt P05015 24-189); experiment: ProteOn SPR, cell supernatant;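 also: each binding measurement used just a single antigen concentration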
T4 construct: Recombinant, HEK293; also called IFN-α16
Description: as §1

[9] = biological target: T5, IFN-α4a (human, UniProt P05014 24-189); experiment: ProteOn SPR, cell supernatant;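 also: each binding measurement used just a single antigen concentration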
T5 construct: Recombinant, HEK293; also called IFN-αM1
Description: as §1

[10] = biological target: T6, IFN-αJ1 (human, UniProt P01567 24-189); experiment: ProteOn SPR, cell supernatant;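 also: each binding measurement used just a single antigen concentration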
T6 construct: Recombinant, HEK293; also called IFN-α7
Description: as §1

[11] = biological target: T7, human IFN-ω (human, UniProt P05000 24-195); experiment: ProteOn SPR, cell supernatant
T7 construct: Recombinant, HEK293; also called interferon omega
Description: as §1

Binder | IC50, ISRE assay [1] | IC50, ISRE assay [2] | IC50, ISRE assay [3] | IC50, ISRE assay [4] | Kd [5] | Kd [6] | Kd [7] | Kd [8] | Kd [9] | Kd [10] | Kd [11]
B1 | 0.098 nM | 0.027 nM | 0.048 nM | 0.033 nM | – | – | – | – | – | – | –
B2 | – | – | – | – | 0.037 nM | 0.044 nM | 0.033 nM | 0.085 nM | 0.206 nM | 0.15 nM | 0.047 nM
B3 | – | – | – | – | 0.068 nM | 0.033 nM | 0.101 nM | 0.07 nM | 0.193 nM | 0.174 nM | 0.058 nM
B4 | – | – | – | – | 0.043 nM | 0.05 nM | 0.05 nM | 0.064 nM | 0.1 nM | 0.125 nM | 0.018 nM
B5 | – | – | – | – | 0.023 nM | 0.035 nM | 0.037 nM | 0.087 nM | 0.101 nM | 0.151 nM | 0.028 nM
B6 | – | – | – | – | 0.019 nM | 0.026 nM | 0.026 nM | 0.044 nM | 0.069 nM | 0.051 nM | 0.018 nM
B7 | – | – | – | – | 0.044 nM | 0.038 nM | 0.051 nM | 0.12 nM | 0.193 nM | 0.192 nM | 0.027 nM
B8 | – | – | – | – | 0.032 nM | 0.027 nM | 0.033 nM | 0.06 nM | 0.128 nM | 0.058 nM | 0.017 nM
B9 | – | – | – | – | 0.011 nM | 0.005 nM | 0.009 nM | 0.025 nM | 0.058 nM | 0.041 nM | 0.014 nM
B10 | – | – | – | – | 0.034 nM | 0.048 nM | 0.039 nM | 0.062 nM | 0.113 nM | 0.14 nM | 0.02 nM
B11 | – | – | – | – | 0.113 nM | 0.037 nM | 0.118 nM | 0.124 nM | 0.475 nM | 0.299 nM | 0.036 nM
B12 | – | – | – | – | 0.191 nM | 0.178 nM | 0.229 nM | 0.493 nM | 1.16 nM | 0.656 nM | 0.089 nM
B13 | – | – | – | – | 0.031 nM | 0.03 nM | 0.039 nM | 0.059 nM | 0.1 nM | 0.07 nM | 0.029 nM
B14 | – | – | – | – | 0.037 nM | 0.037 nM | 0.037 nM | 0.063 nM | 0.135 nM | 0.119 nM | 0.078 nM
B15 | – | – | – | – | 0.126 nM | 0.081 nM | 0.158 nM | 0.193 nM | 0.582 nM | 0.399 nM | 0.086 nM
B16 | – | – | – | – | 0.172 nM | 0.15 nM | 0.168 nM | 0.248 nM | 0.533 nM | 0.496 nM | 0.075 nM
B17 | – | – | – | – | 0.039 nM | 0.021 nM | 0.039 nM | 0.041 nM | 0.155 nM | 0.225 nM | 0.01 nM
B18 | – | – | – | – | 0.022 nM | 0.035 nM | 0.023 nM | 0.031 nM | 0.067 nM | 0.045 nM | 0.019 nM
B19 | – | – | – | – | 0.094 nM | 0.103 nM | 0.116 nM | 0.272 nM | 0.432 nM | 0.69 nM | 0.049 nM
